Assay results from US20180340159.

Target: T1, propeptide of Rhizomucor miehei lipase (RmL)
T1 chain: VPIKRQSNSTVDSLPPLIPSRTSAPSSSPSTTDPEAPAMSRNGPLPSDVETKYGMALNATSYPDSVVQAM

B1: Rhizomucor miehei lipase (RmL) wild type mature protein (protein)
chain: SIDGGIRAATSQEINELTYYTTLSANSYCRTVIPGATWDCIHCDATEDLKIIKTWSTLIYDTNAMVARGDSEKTIYIVFRGSSSIRNWIADLTFVPVSYPPVSGTKVHKGFLDSYGEVQNELVATVLDQFKQYPSYKVAVTGHSLGGATALLCALDLYQREEGLSSSNLFLYTQGQPRVGDPAFANYVVSTGIPYRRTVNERDIVPHLPPAAFGFLHAGEEYWITDNSPETVQVCTSDLETSDCSNSIVPFTSVLDHLSYFGINTGLCT
Question: How did the lipase hydrolytic activity (4-MU oleate), average slope; incubated with 5 µM TCEP turn out when B1 was run?
Answer: 22 RFU/sec

Question: And the lipase hydrolytic activity (4-MU oleate), average slope; incubated with 5 uM TCEP + Model B?
Answer: 66 RFU/sec

Question: What about the lipase hydrolytic activity (4-MU oleate), average slope; incubated with 1.35% Savinase + Model B of the same protein?
Answer: 143 RFU/sec

Question: What about the lipase hydrolytic activity (4-MU oleate), average slope; incubated with 2% NaSO2 of the same protein?
Answer: 28 RFU/sec

Question: What about the lipase hydrolytic activity (4-MU oleate), average slope; incubated with 2% NaSO2 + Model B of the same protein?
Answer: 66 RFU/sec
